Data published in paper PMC8013792, “Bacterial protein domains with a novel Ig‐like fold target human CEACAM receptors” (The EMBO Journal, 2021).

B1: tag-less CEACAM1 N-terminal domain, unglycosylated (domain or fragment, human)
chain: AQLTTESMPFNVAEGKEVLLLVHNLPQQLFGYSWYKGERVDGNRQIVGYAIGTQQATPGPANSGRETIYPNASLLIQNVTQNDTGFYTLQVIKSDLVNEEATGQFHVY
notes: CEACAM1, human, N-terminal IgV-like domain, tag-less; also called rCEACAM1-N; CC1-N; source: E. coli (pET21d), purified
B2: IgI3 domain of R28 protein, recombinant, as used in ITC (domain or fragment)
chain: KYSPEAKHRTVEQHAELDAKDSIANTDELPSNSTYNWKNGHKPDTSTSGEKDGIVEVHYPDGTVDDVNVKVTVTSKKTDNTAPTLTVTPEQQTVKVDEDITFTVTVEDENEVELGLDDLKAKYENDIIGARVKIKYLTKEPNKKVMEVTIMKATLADKGAITFTAKDKAGNQAEPKTVTINVLPLK
modifications: Construct limits not printed. 233-418 is the unannotated region between the AlphaC C-terminal domain (ends 232) and the first annotated Rib repeat (starts 419); it should enclose the IgI3 domain …

How the values were obtained:
[1] = target: IgSF (IgI3) domain of β protein, recombinant, as used in ITC (Streptococcus agalactiae (GBS)); assay: ITC; iTC200, 25°C, 30 mM Tris-HCl, 150 mM NaCl, pH 7.5; typically 500 µM unglycosylated CEACAM-N domain in the syringe, 50 µM IgI3 domain; duplicates
[2] = target: β-IgI3 F42A, as used in ITC (Streptococcus agalactiae (GBS)); assay: as above
[3] = target: β-IgI3 V53A, as used in ITC (Streptococcus agalactiae (GBS)); assay: as above
[4] = target: β-IgI3 D55A, as used in ITC (Streptococcus agalactiae (GBS)); assay: as above
[5] = target: B2; assay: as above; details: both partners purified
[6] = target: B1; assay: as above; details: both partners purified
[7] = target: T1, tag-less unglycosylated CEACAM1 N-terminal domain (rCEACAM1-N, pET21d) (human, UniProt P13688 34-141); assay: ITC; iTC200, 25 °C, 16 injections of 2.42 µL; typically 500 µM unglycosylated CEACAM-N in the syringe and 50 µM β-IgSF/β-IgI3; 30 mM Tris-HCl, 150 mM NaCl, pH 7.5; duplicates; details: both partners purified
T1 construct: N-terminal IgV-like domain of human CEACAM1; also called rCC1-N; CC1-N; source: E. coli, pET21d, purified as in Bonsor et al, 2015a
T1 sequence: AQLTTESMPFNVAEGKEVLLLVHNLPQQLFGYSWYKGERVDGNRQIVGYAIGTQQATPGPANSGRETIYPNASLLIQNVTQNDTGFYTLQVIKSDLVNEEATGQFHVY

Molecule “CEACAM5 N-terminal domain, unglycosylated (domain or fragment)” has a Kd [1] of 0.152 µM.

With “tag-less CEACAM1 N-terminal domain, unglycosylated (from UniProt P13688 34-141) (domain or fragment)” the Kd [2] was 0.016 µM, the Kd [1] was 0.096 µM and the Kd [3] was 0.562 µM. The Kd [4] was 0.69 µM.

Work on “tag-less CEACAM1-N L95A, unglycosylated (from UniProt P13688 34-141) (domain or fragment)” yielded a Kd [1] of 1.35 µM.

Work on “tag-less CEACAM1-N N97A, unglycosylated (from UniProt P13688 34-141) (domain or fragment)” yielded a Kd [1] of 0.49 µM.

With “tag-less CEACAM1-N Q44A, unglycosylated (from UniProt P13688 34-141) (domain or fragment)” the Kd [1] was 0.996 µM.

Work on “tag-less CEACAM1-N V96A, unglycosylated (from UniProt P13688 34-141) (domain or fragment)” yielded a Kd [1] of 0.37 µM.

Molecule B1 has a dH [5] of -20.1 ± 1.26 kJ/mol.

B2 gave a Kd [6] of 1.05 ± 0.018 µM.

B3: β-IgI3 L45A (rβIgI3ΔL45A-His) (domain or fragment)
chain: ANENNQQKIELTVSPENITVYEGEDVKFTVTAKSDSKTTLDFSDALTKYNPSVSDRISTNYKTNTDNHKIAEITIKNLKLNESQTVTLKAKDDSGNVVEKTFTITVQKKEEKQ
notes: the substitution is still to be applied; its number counts on the domain's own 1-113; source: E. coli RG (Rosetta Gami), purified (Nickel column)
Work on B3 yielded a Kd [7] of 0.234 µM.

B4: β-IgI3 S52A (rβIgI3ΔS52A-His) (domain or fragment)
chain: ANENNQQKIELTVSPENITVYEGEDVKFTVTAKSDSKTTLDFSDLLTKYNPAVSDRISTNYKTNTDNHKIAEITIKNLKLNESQTVTLKAKDDSGNVVEKTFTITVQKKEEKQ
notes: as for B3
B4 was tested, and the Kd [7] was 0.085 µM.
